From article PMC8034648, “Oligomeric complexes formed by Redβ single strand annealing protein in its different DNA bound states”
Several values for one entry are separate records, joined by “and”; a condition that tells them apart may be missing. Equal values may be shown once.

How the values were obtained:
[1] = target: Redβ single strand annealing protein from bacteriophage λ (bacteriophage λ) (UniProt P03698); experiment: SEC-MALS; Redβ alone, no DNA; Superose 6 increase 3.2/300, PBS, 0.04 ml/min; loaded at 34, 67 and 101 μM, eluted at 6.0, 13.5 and 18.5 μM; weight-average mass; monomers to oligomer
[2] = target: Redβ single strand annealing protein from bacteriophage λ (bacteriophage λ) (UniProt P03698); experiment: SEC-MALS; Redβ with dT38 ssDNA (6 nt/monomer, 22°C, 30 min); Superose 6 increase, PBS; loaded at 34 μM; n assumes one copy of dT38
[3] = target: Redβ single strand annealing protein from bacteriophage λ (bacteriophage λ) (UniProt P03698); experiment: native MS; 1 μM Redβ with two complementary strands added sequentially (83-:83+ or 83-:87+), annealed duplex; 50 mM ammonium acetate pH 7
[4] = target: Redβ single strand annealing protein from bacteriophage λ (bacteriophage λ) (UniProt P03698); experiment: SEC-MALS; Redβ with dT38 then dA38 added sequentially (annealed duplex, 4 nt/monomer each); Superose 6 increase, PBS; loaded at 34 μM; n assumes one copy of dT38:dA38
[5] = target: Redβ single strand annealing protein from bacteriophage λ (bacteriophage λ) (UniProt P03698); experiment: native MS; Redβ alone, no DNA, at 1 μM or greater (up to 30 μM); 50 mM ammonium acetate pH 7; monomers to 12-mer
[6] = target: Redβ single strand annealing protein from bacteriophage λ (bacteriophage λ) (UniProt P03698); experiment: native MS; Redβ (0.1 to 30 μM) with two complementary 38-mers added sequentially (dT38:dA38; at 1 μM also 38NC1+:38NC1- and 38NC3+:40NC3-), annealed duplex; 50 mM ammonium acetate pH 7
[7] = target: Redβ single strand annealing protein from bacteriophage λ (bacteriophage λ) (UniProt P03698); experiment: native MS; 1 μM Redβ with two complementary strands added sequentially (83-:83+ or 83-:87+), annealed duplex; 50 mM ammonium acetate pH 7; remark: listed apart in the source
[8] = target: Redβ single strand annealing protein from bacteriophage λ (bacteriophage λ) (UniProt P03698); experiment: native MS; Redβ alone, no DNA, at 1 μM or greater (up to 30 μM); 50 mM ammonium acetate pH 7; monomers to 12-mer; remark: listed apart in the source
[9] = target: Redβ single strand annealing protein from bacteriophage λ (bacteriophage λ) (UniProt P03698); experiment: native MS; Redβ (0.1 to 30 μM) with two complementary 38-mers added sequentially (dT38:dA38; at 1 μM also 38NC1+:38NC1- and 38NC3+:40NC3-), annealed duplex; 50 mM ammonium acetate pH 7; remark: listed apart in the source
[10] = target: Redβ single strand annealing protein from bacteriophage λ (bacteriophage λ) (UniProt P03698); experiment: SEC-MALS; Redβ with dT38 ssDNA (6 nt/monomer, 22°C, 30 min); Superose 6 increase, PBS; loaded at 34 μM; n assumes one copy of dT38; remark: listed apart in the source
[11] = target: Redβ single strand annealing protein from bacteriophage λ (bacteriophage λ) (UniProt P03698); experiment: SEC-MALS; Redβ with 83- then 83+ added sequentially (annealed duplex); Superose 6 increase, PBS; loaded at 34 μM; n assumes one copy of 83-:83+
[12] = target: Redβ single strand annealing protein from bacteriophage λ (bacteriophage λ) (UniProt P03698); experiment: SEC-MALS; Redβ with 83- ssDNA (6 nt/monomer, 22°C, 30 min); Superose 6 increase, PBS; loaded at 34 μM; n assumes one copy of the 83-mer
[13] = target: T1, Redβ single strand annealing protein (bacteriophage λ, UniProt P03698); experiment: native MS; 1 uM Redβ; 5-15 subunits, 1 or 2 DNA; EMSA: 10 uM Redβ, 50 uM nt DNA, 37 C, in PBS, or 20 mM Tris-HCl pH 7.5/10 mM NaCl/10 mM MgCl2, or 50 mM ammonium acetate pH 7.0; SEC-MALS: PBS, complexes formed; details: protein: recombinant; tags: N-terminal GSH left after thrombin removal of 6xHis; chain copies: 11
T1 sequence: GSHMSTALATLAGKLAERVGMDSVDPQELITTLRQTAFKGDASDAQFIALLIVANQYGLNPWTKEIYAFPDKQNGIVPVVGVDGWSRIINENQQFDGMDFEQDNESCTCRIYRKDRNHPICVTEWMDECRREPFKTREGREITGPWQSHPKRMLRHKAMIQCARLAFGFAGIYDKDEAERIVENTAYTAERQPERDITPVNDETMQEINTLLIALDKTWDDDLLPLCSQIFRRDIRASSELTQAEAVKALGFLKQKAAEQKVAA

[14] = target: T1, Redβ single strand annealing protein; experiment: native MS; strands added sequentially, 1 uM Redβ; 11 subunits; EMSA: 10 uM Redβ, 50 uM nt DNA, 37 C, in PBS, or 20 mM Tris-HCl pH 7.5/10 mM NaCl/10 mM MgCl2, or 50 mM ammonium acetate pH 7.0; SEC-MALS: PBS, complexes formed; details: protein: recombinant, tags: N-terminal GSH left after thrombin removal of 6xHis, chain copies: 11
[15] = target: T1, Redβ single strand annealing protein; experiment: SEC-MALS; PBS; 427 kDa, n=14.0; EMSA: 10 uM Redβ, 50 uM nt DNA, 37 C, in PBS, or 20 mM Tris-HCl pH 7.5/10 mM NaCl/10 mM MgCl2, or 50 mM ammonium acetate pH 7.0; SEC-MALS: PBS, complexes formed; details: protein: recombinant; tags: N-terminal GSH left after thrombin removal of 6xHis; chain copies: 11
[16] = target: T1, Redβ single strand annealing protein; experiment: EMSA; PBS, ssDNA alone; EMSA: 10 uM Redβ, 50 uM nt DNA, 37 C, in PBS, or 20 mM Tris-HCl pH 7.5/10 mM NaCl/10 mM MgCl2, or 50 mM ammonium acetate pH 7.0; SEC-MALS: PBS, complexes formed; details: protein: recombinant, tags: N-terminal GSH left after thrombin removal of 6xHis, chain copies: 11
[17] = target: T1, Redβ single strand annealing protein; experiment: native MS; 1 uM Redβ and higher; 8-13 subunits; EMSA: 10 uM Redβ, 50 uM nt DNA, 37 C, in PBS, or 20 mM Tris-HCl pH 7.5/10 mM NaCl/10 mM MgCl2, or 50 mM ammonium acetate pH 7.0; SEC-MALS: PBS, complexes formed; details: protein: recombinant; tags: N-terminal GSH left after thrombin removal of 6xHis; chain copies: 11
[18] = target: T1, Redβ single strand annealing protein; experiment: EMSA; strands added sequentially, PBS; EMSA: 10 uM Redβ, 50 uM nt DNA, 37 C, in PBS, or 20 mM Tris-HCl pH 7.5/10 mM NaCl/10 mM MgCl2, or 50 mM ammonium acetate pH 7.0; SEC-MALS: PBS, complexes formed; details: protein: recombinant; tags: N-terminal GSH left after thrombin removal of 6xHis; chain copies: 11; label: 5'-Cy5, 5'-Cy3; blunt
[19] = target: T1, Redβ single strand annealing protein; experiment: EMSA; added first, then noncomplementary Cy5 50mer; unusually high affinity; EMSA: 10 uM Redβ, 50 uM nt DNA, 37 C, in PBS, or 20 mM Tris-HCl pH 7.5/10 mM NaCl/10 mM MgCl2, or 50 mM ammonium acetate pH 7.0; SEC-MALS: PBS, complexes formed; details: protein: recombinant; tags: N-terminal GSH left after thrombin removal of 6xHis; chain copies: 11; label: 5'-Cy3

Redβ single strand annealing protein from bacteriophage λ (from UniProt P03698 1-261)
stoichiometry N [1]: 7.7 subunits

Redβ single strand annealing protein from bacteriophage λ (from UniProt P03698 1-261) (natural protein)
stoichiometry N [2]: 14.1 subunits | stoichiometry N [3]: 21 subunits and 23 subunits | stoichiometry N [4]: 11.3 subunits | midpoint of the transition from monomer to 12-mer [5]: 1 µM | stoichiometry N [5]: 1 to 14 subunits | stoichiometry N [6]: 11 subunits | stoichiometry N [7]: 22 subunits | stoichiometry N [8]: 12 subunits | stoichiometry N [9]: 9 subunits and 10 subunits | stoichiometry N [1]: 8.6 subunits and 9.1 subunits | stoichiometry N [10]: 14 subunits | stoichiometry N [11]: 18.2 subunits | stoichiometry N [12]: 21.1 subunits

B1: 38NC3+ (ssDNA)
DNA: GACGCACAATGACAGATAACACAATGGCGAGATAACGC
binding result [13]: binds

B2: 38NC3+:40NC3- (dsDNA)
DNA 1: B1 DNA
DNA 2: GCGTTATCTCGCCATTGTGTTATCTGTCATTGTGCGTCGC
binding result ([14]; 3' overhang 2 nt on strand 2): binds

B3: dT38 (ssDNA)
DNA: TTTTTTTTTTTTTTTTTTTTTTTTTTTTTTTTTTTTTT
binding result [15]: binds

B4: Cy5 24mer (ssDNA)
DNA: AAAATCGAGCTATGCAGGGCGATT
binding result ([16]; label: 5'-Cy5): no binding

B5: 40NC3- (ssDNA)
DNA: B2 DNA 2
binding result [13]: binds

B6: Cy5 16mer (ssDNA)
DNA: AAAATCGAGCTATGCA
binding result ([16]; label: 5'-Cy5): no binding

B7: dA38 (ssDNA)
DNA: AAAAAAAAAAAAAAAAAAAAAAAAAAAAAAAAAAAAAA
binding result [17]: binds

B8: 20mer annealed duplex (dsDNA)
DNA 1: AAAATCGAGCTATGCAGGGC
DNA 2: GCCCTGCATAGCTCGATTTT
binding result [18]: binds

B9: 38NC1- (ssDNA)
DNA: TCGGATCTCGTTGCATCTAGCGTCCGTTTACTGTGTCT
binding result [13]: binds

B10: Cy3 28mer (ssDNA)
DNA: GCAGAATCGCCCTGCATAGCTCGATTTT
binding result ([16]; label: 5'-Cy3): no binding

B11: Cy3 16mer (ssDNA)
DNA: TGCATAGCTCGATTTT
binding result ([16]; label: 5'-Cy3): no binding

B12: 24mer annealed duplex (dsDNA)
DNA 1: AAAATCGAGCTATGCAGGGCGATT
DNA 2: AATCGCCCTGCATAGCTCGATTTT
binding result [18]: binds

B13: Cy3 24mer (ssDNA)
DNA: AATCGCCCTGCATAGCTCGATTTT
binding result ([16]; label: 5'-Cy3): no binding

B14: Cy5 28mer (ssDNA)
DNA: AAAATCGAGCTATGCAGGGCGATTCTGC
binding result ([16]; label: 5'-Cy5): no binding

B15: Cy3 NC 50mer (ssDNA)
DNA: GAGTGATAGGCATATGTGCTACGAGTATCGAAGGAACGGTCACTACGCAA
binding result [19]: binds

B16: Cy5 20mer (ssDNA)
DNA: AAAATCGAGCTATGCAGGGC
binding result ([16]; label: 5'-Cy5): no binding

B17: 38NC1+ (ssDNA)
DNA: AGACACAGTAAACGGACGCTAGATGCAACGAGATCCGA
binding result [13]: binds

B18: 38NC1+:38NC1- (dsDNA)
DNA 1: B17 DNA
DNA 2: B9 DNA
binding result ([14]; blunt): binds

B19: Cy3 20mer (ssDNA)
DNA: GCCCTGCATAGCTCGATTTT
binding result ([16]; label: 5'-Cy3): no binding

B20: 28mer annealed duplex (dsDNA)
DNA 1: AAAATCGAGCTATGCAGGGCGATTCTGC
DNA 2: GCAGAATCGCCCTGCATAGCTCGATTTT
binding result [18]: binds
